Source: PMC9482650, “Quantitative fragmentomics allow affinity mapping of interactomes” (Nature Communications, 2022)

Legend:
Experiment in all cases: holdup assay
Parameters in all cases: key: below the threshold = too weak to quantify, mostly under pKd 3.1 to 4
Settings in all cases: plain residues with an end cap or a label only (N-terminal biotin on a linker: ado-ado)
SCRIB_3, Q14160 = molecular target: SCRIB_3, Q14160
SNTB1, Q13884 = molecular target: T1, SNTB1, Q13884
T1 sequence (Q13884 107-205, limits assumed, looked up): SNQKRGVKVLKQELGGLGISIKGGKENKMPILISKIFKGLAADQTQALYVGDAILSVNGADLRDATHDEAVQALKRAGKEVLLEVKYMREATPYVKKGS

PARD3B_1, Q8TEW8 = molecular target: T2, PARD3B_1, Q8TEW8
T2 sequence (Q8TEW8 196-299, limits assumed, looked up): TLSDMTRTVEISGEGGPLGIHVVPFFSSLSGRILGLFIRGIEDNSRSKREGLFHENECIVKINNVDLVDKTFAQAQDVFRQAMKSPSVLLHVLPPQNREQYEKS

RAPGEF6, Q8TEU7 = molecular target: T3, RAPGEF6, Q8TEU7
T3 sequence (Q8TEU7 525-625, limits assumed, looked up): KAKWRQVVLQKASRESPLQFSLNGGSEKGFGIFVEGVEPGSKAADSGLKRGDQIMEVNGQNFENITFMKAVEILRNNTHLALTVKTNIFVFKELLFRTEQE

TX1BP3, O14907 = molecular target: T4, TX1BP3, O14907
T4 sequence (O14907 10-122, limits assumed, looked up): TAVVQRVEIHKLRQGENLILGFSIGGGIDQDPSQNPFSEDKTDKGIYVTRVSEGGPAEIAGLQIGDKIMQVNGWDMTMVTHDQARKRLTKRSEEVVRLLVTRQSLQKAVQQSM

GOPC, Q9HD26 = molecular target: GOPC, Q9HD26
Inadl_3, Q8NI35 = molecular target: Inadl_3, Q8NI35
DLG3_1, Q92796 = molecular target: T5, DLG3_1, Q92796
T5 sequence (Q92796 125-227, limits assumed, looked up): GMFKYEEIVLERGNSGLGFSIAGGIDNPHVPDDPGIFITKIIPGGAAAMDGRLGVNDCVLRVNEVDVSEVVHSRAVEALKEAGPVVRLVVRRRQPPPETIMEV

HTRA2, O43464 = molecular target: HTRA2, O43464
MPDZ_12, O75970 = molecular target: T6, MPDZ_12, O75970
T6 sequence (O75970 1857-1958, limits assumed, looked up): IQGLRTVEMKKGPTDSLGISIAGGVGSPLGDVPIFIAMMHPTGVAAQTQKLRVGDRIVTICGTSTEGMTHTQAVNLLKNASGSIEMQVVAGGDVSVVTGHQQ

TJP2_1, Q9UDY2 = molecular target: TJP2_1, Q9UDY2
MAST2, Q6P0Q8 = molecular target: MAST2, Q6P0Q8
DLG3_2, Q92796 = molecular target: T7, DLG3_2, Q92796
T7 sequence (Q92796 221-321, limits assumed, looked up): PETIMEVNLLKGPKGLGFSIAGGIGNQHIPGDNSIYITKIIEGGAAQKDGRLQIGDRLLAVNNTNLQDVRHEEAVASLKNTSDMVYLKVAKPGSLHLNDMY

DLG4_1, P78352 = molecular target: DLG4_1, P78352
FRMPD2_1, Q68DX3 = molecular target: FRMPD2_1, Q68DX3
Inadl_6, Q8NI35 = molecular target: Inadl_6, Q8NI35
FRMPD2_2, Q68DX3 = molecular target: FRMPD2_2, Q68DX3
GORASP2, Q9H8Y8 = molecular target: GORASP2, Q9H8Y8
PICK1, Q9NRD5 = molecular target: PICK1, Q9NRD5
GRIP1_5, Q9Y3R0 = molecular target: T8, GRIP1_5, Q9Y3R0
T8 sequence (Q9Y3R0 568-668, limits assumed, looked up): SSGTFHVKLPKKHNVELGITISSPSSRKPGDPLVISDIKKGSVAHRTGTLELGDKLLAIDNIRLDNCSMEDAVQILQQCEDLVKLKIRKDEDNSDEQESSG

LNX2_2, Q8N448 = molecular target: T9, LNX2_2, Q8N448
T9 sequence (Q8N448 334-432, limits assumed, looked up): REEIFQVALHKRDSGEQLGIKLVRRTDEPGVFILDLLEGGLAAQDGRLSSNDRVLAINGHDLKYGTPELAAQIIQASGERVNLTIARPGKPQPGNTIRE

MAGI2_5, Q86UL8 = molecular target: MAGI2_5, Q86UL8
MAGI2_4, Q86UL8 = molecular target: MAGI2_4, Q86UL8
PTPN3, P26045 = molecular target: PTPN3, P26045
MAST1, Q9Y2H9 = molecular target: MAST1, Q9Y2H9
FRMPD1, Q5SYB0 = molecular target: T10, FRMPD1, Q5SYB0
T10 sequence (Q5SYB0 52-145, limits assumed, looked up): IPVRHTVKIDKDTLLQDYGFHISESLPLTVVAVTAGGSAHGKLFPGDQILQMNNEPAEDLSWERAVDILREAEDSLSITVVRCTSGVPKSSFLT

Inadl_8, Q8NI35 = molecular target: Inadl_8, Q8NI35
Inadl_8, Q8NI35, sequence (Q8NI35 1425-1530): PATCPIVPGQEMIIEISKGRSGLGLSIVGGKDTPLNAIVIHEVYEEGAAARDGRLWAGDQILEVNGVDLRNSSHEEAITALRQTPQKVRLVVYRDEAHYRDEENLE

DLG4_1, P78352, sequence (P78352 62-152): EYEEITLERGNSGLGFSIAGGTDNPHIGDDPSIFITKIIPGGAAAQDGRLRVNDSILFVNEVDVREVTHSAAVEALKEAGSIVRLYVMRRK
FRMPD2_1, Q68DX3, sequence (Q68DX3 770-861): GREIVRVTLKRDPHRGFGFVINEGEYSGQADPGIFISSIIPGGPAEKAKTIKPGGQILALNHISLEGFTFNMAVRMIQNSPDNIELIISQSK
MAST1, Q9Y2H9, sequence (Q9Y2H9 962-1065): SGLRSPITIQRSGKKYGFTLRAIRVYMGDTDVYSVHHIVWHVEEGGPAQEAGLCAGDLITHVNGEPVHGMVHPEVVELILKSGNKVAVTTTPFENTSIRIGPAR
FRMPD2_2, Q68DX3, sequence (Q68DX3 944-1038): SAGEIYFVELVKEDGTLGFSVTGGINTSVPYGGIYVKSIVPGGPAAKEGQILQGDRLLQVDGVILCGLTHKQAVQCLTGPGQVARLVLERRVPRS
MAGI2_5, Q86UL8, sequence (Q86UL8 915-1017): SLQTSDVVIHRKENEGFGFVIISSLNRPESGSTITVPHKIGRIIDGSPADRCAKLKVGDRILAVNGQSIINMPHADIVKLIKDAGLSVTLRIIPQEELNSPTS
TJP2_1, Q9UDY2, sequence (Q9UDY2 24-128): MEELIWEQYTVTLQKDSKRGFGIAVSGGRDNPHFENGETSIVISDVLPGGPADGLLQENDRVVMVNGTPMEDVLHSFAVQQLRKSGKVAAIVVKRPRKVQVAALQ
SCRIB_3, Q14160, sequence (Q14160 999-1103): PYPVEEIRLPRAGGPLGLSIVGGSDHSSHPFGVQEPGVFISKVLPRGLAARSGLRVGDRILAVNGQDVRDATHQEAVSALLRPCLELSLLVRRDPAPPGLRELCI
HTRA2, O43464, sequence (O43464 355-458): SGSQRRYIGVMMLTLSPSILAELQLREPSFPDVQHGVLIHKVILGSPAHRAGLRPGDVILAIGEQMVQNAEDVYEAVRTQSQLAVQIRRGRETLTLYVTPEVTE
Inadl_3, Q8NI35, sequence (Q8NI35 359-469): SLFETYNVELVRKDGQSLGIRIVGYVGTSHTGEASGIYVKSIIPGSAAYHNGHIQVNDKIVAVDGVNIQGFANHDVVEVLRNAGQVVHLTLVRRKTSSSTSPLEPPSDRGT
Inadl_6, Q8NI35, sequence (Q8NI35 1058-1167): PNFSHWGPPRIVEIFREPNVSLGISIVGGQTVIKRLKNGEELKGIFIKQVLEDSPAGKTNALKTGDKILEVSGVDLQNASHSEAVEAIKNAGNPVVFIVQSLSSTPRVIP
MAGI2_4, Q86UL8, sequence (Q86UL8 772-865): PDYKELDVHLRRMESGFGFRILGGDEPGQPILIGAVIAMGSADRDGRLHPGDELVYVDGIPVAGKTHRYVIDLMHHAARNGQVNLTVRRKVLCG
PTPN3, P26045, sequence (P26045 505-587): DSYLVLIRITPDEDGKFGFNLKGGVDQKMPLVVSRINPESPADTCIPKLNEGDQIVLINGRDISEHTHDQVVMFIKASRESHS
MAST2, Q6P0Q8, sequence (Q6P0Q8 1099-1202): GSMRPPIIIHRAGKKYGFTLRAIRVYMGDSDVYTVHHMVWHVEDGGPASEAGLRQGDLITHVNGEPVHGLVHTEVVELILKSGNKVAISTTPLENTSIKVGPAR
PICK1, Q9NRD5, sequence (Q9NRD5 17-115): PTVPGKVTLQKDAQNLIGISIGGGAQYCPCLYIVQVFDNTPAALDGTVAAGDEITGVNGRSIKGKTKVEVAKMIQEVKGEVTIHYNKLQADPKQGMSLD

WRSKRTDTLL [RAMP3, O60896]
pKd (SCRIB_3, Q14160): 3.98 | pKd (SNTB1, Q13884): below the threshold | pKd (PARD3B_1, Q8TEW8): 4.32 | pKd (RAPGEF6, Q8TEU7): below the threshold | pKd (TX1BP3, O14907): 4.13 | pKd (GOPC, Q9HD26): 3.61 | pKd (Inadl_3, Q8NI35): below the threshold | pKd (DLG3_1, Q92796): below the threshold | pKd (HTRA2, O43464): below the threshold | pKd (MPDZ_12, O75970): below the threshold | pKd (TJP2_1, Q9UDY2): below the threshold | pKd (MAST2, Q6P0Q8): 5.45 | pKd (DLG3_2, Q92796): below the threshold | pKd (DLG4_1, P78352): 4.02 | pKd (FRMPD2_1, Q68DX3): below the threshold | pKd (Inadl_6, Q8NI35): below the threshold | pKd (FRMPD2_2, Q68DX3): below the threshold | pKd (GORASP2, Q9H8Y8): below the threshold | pKd (PICK1, Q9NRD5): below the threshold | pKd (GRIP1_5, Q9Y3R0): below the threshold | pKd (LNX2_2, Q8N448): below the threshold | pKd (MAGI2_5, Q86UL8): below the threshold | pKd (MAGI2_4, Q86UL8): 3.91 | pKd (PTPN3, P26045): 4.22 | pKd (MAST1, Q9Y2H9): 3.84 | pKd (FRMPD1, Q5SYB0): below the threshold | pKd (Inadl_8, Q8NI35): below the threshold

FEEEAEEEVA [TUBB4B, P68371]
pKd (SCRIB_3, Q14160): below the threshold | pKd (SNTB1, Q13884): below the threshold | pKd (PARD3B_1, Q8TEW8): 3.98 | pKd (RAPGEF6, Q8TEU7): below the threshold | pKd (TX1BP3, O14907): 3.8 | pKd (GOPC, Q9HD26): below the threshold | pKd (Inadl_3, Q8NI35): below the threshold | pKd (DLG3_1, Q92796): below the threshold | pKd (HTRA2, O43464): below the threshold | pKd (MPDZ_12, O75970): below the threshold | pKd (TJP2_1, Q9UDY2): below the threshold | pKd (MAST2, Q6P0Q8): below the threshold | pKd (DLG3_2, Q92796): 4.01 | pKd (DLG4_1, P78352): below the threshold | pKd (FRMPD2_1, Q68DX3): below the threshold | pKd (Inadl_6, Q8NI35): below the threshold | pKd (FRMPD2_2, Q68DX3): below the threshold | pKd (GORASP2, Q9H8Y8): below the threshold | pKd (PICK1, Q9NRD5): below the threshold | pKd (GRIP1_5, Q9Y3R0): below the threshold | pKd (LNX2_2, Q8N448): below the threshold | pKd (MAGI2_5, Q86UL8): below the threshold | pKd (MAGI2_4, Q86UL8): below the threshold | pKd (PTPN3, P26045): 3.54 | pKd (MAST1, Q9Y2H9): below the threshold | pKd (FRMPD1, Q5SYB0): below the threshold | pKd (Inadl_8, Q8NI35): below the threshold

VISERNSTTV [C3AR1, Q16581]
pKd (SCRIB_3, Q14160): 3.62 | pKd (SNTB1, Q13884): 3.77 | pKd (PARD3B_1, Q8TEW8): below the threshold | pKd (RAPGEF6, Q8TEU7): below the threshold | pKd (TX1BP3, O14907): below the threshold | pKd (GOPC, Q9HD26): 3.92 | pKd (Inadl_3, Q8NI35): below the threshold | pKd (DLG3_1, Q92796): 4.06 | pKd (HTRA2, O43464): below the threshold | pKd (MPDZ_12, O75970): below the threshold | pKd (TJP2_1, Q9UDY2): below the threshold | pKd (MAST2, Q6P0Q8): 5.2 | pKd (DLG3_2, Q92796): 4.42 | pKd (DLG4_1, P78352): 4.58 | pKd (FRMPD2_1, Q68DX3): below the threshold | pKd (Inadl_6, Q8NI35): below the threshold | pKd (FRMPD2_2, Q68DX3): below the threshold | pKd (GORASP2, Q9H8Y8): below the threshold | pKd (PICK1, Q9NRD5): below the threshold | pKd (GRIP1_5, Q9Y3R0): below the threshold | pKd (LNX2_2, Q8N448): 5.05 | pKd (MAGI2_5, Q86UL8): 3.73 | pKd (MAGI2_4, Q86UL8): 4.44 | pKd (PTPN3, P26045): 4.01 | pKd (MAST1, Q9Y2H9): 3.74 | pKd (FRMPD1, Q5SYB0): below the threshold | pKd (Inadl_8, Q8NI35): 3.54

PDGEMMEVLI [AMOTL1, Q8IY63]
pKd (SCRIB_3, Q14160): 3.74 | pKd (SNTB1, Q13884): below the threshold | pKd (PARD3B_1, Q8TEW8): 4.95 | pKd (RAPGEF6, Q8TEU7): below the threshold | pKd (TX1BP3, O14907): below the threshold | pKd (GOPC, Q9HD26): below the threshold | pKd (Inadl_3, Q8NI35): 5.08 | pKd (DLG3_1, Q92796): below the threshold | pKd (HTRA2, O43464): below the threshold | pKd (MPDZ_12, O75970): below the threshold | pKd (TJP2_1, Q9UDY2): below the threshold | pKd (MAST2, Q6P0Q8): 3.73 | pKd (DLG3_2, Q92796): 4.06 | pKd (DLG4_1, P78352): below the threshold | pKd (FRMPD2_1, Q68DX3): below the threshold | pKd (Inadl_6, Q8NI35): below the threshold | pKd (FRMPD2_2, Q68DX3): below the threshold | pKd (GORASP2, Q9H8Y8): below the threshold | pKd (PICK1, Q9NRD5): below the threshold | pKd (GRIP1_5, Q9Y3R0): below the threshold | pKd (LNX2_2, Q8N448): 5.03 | pKd (MAGI2_5, Q86UL8): below the threshold | pKd (MAGI2_4, Q86UL8): below the threshold | pKd (PTPN3, P26045): below the threshold | pKd (MAST1, Q9Y2H9): 3.71 | pKd (FRMPD1, Q5SYB0): below the threshold | pKd (Inadl_8, Q8NI35): below the threshold
